# Test results reported in the supplement of paper PMC12764529.
# ± gives the half width of the 95% confidence interval.
# Assay: folding stability dG unfold (combined trypsin and chymotrypsin); higher = more stable
# How it was run: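 Digests were run with trypsin and chymotrypsin at 11 concentrations in threefold dilutions, plus a no-protease condition, on designed mini-proteins in a PA-tagged cDNA display construct. The mini-proteins were under 80 residues, had no cysteine, and were kept only when AlphaFold2 dimer inter-PAE was above 15. After sequencing, Bayesian fitting of the counts gave K50, from which unfolding free energy was derived against a sequence-predicted unfolded-state K50 and a shared folded-state K50, per protease or combined.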
row,Sequence,folding stability dG unfold
1,SAGGSAGGSAGGPPGAVERGYLVVRFRVYRPEPAEPVGELTVYVRVPPPEPEEDGSFRFHSAGGSAGGSAGG [r7_959_TrMRF],2.24 ± 0.086 kcal/mol
2,SAGGSAGGSKTIVITIEPNVKTPEQLLELLKKIRELSKPGEKIVIIASPEVLEALKKAGLIEESAGGSAGGS [r12_992_TrROS_Hall],3.49 ± 0.097 kcal/mol
3,SAGGSIWIPIDSPEDVEEAIDFIQDFLAERGMPPGHDIKKIKVERMENGHYWVEIEFPGRKIYIWVSAGGSA [r2_120_TrROS],3.65 ± 0.084 kcal/mol
4,SAGKKKKIKIKVKIIVNGKLKEIEIEVDENKTLEEILAEIKKKLPKNAIIIITNENGEKKIIILPKEELSAG [r5_77_TrROS_Hall],1.89 ± 0.45 kcal/mol
5,SAGGDYVKIDFTVMIPTPEQAEEMAEEIKNFFRFMGIKEVKIKVQRNPNNGMYYVTVDIEIRMPPGAVSAGG [r19_92_TrROS],4.82 ± 0.17 kcal/mol
6,SAGGSAGGSAGGKTYTLTFKAKIEVSEDDVVVITPPNGKKLVVPKENVKVHPDGTVTVTGSAGGSAGGSAGG [r7_684_TrMRF],1.19 ± 0.2 kcal/mol
7,SAGGSAGGSAGVRIDKDGWTIKWYNPDGEKRTFTVDSPEEAKDFLEENFPPGWRVEIEPPSAGGSAGGSAGG [r11_983_TrROS],1.33 ± 0.13 kcal/mol
8,SAGGSAGGSEKPVLIVKVKVKNPKTKKWEEKTIEVPEGVKTPEEVAKALEKEFGDVVKVEILPSAGGSAGGS [r12_942_TrROS_Hall],1.63 ± 0.19 kcal/mol
9,SAGGDSISDIESVNIYSFNIPSNPYPYIIAELTIPDGRKIIAIYDPSTNTVTIIIEDDGKPRIITLPASAGG [r13_960_TrMRF],2.7 ± 0.11 kcal/mol
10,SAGGTPVVVPATITVPVPFGAPARVTIFTPEDGHVLALIELPDGAVLVATFDPTTGELHVAPYADAASAGGS [r16_735_TrMRF],2.23 ± 0.14 kcal/mol
11,SAGGSSSVGVDSSDPEKTKEAILKAYGTDAEPVFTTDPATGRLTITVPETGDVHTVTAGTRTETAASAGGSA [r2_205_JUSTAS],0.801 ± 0.085 kcal/mol
12,SAGGSAGGSAGGSITITWNPESGTVKIKPPNNKKEIEIPAENMTPSQIIDQAKDNGVEVSAGGSAGGSAGGS [r4_49_TrROS],0.935 ± 0.17 kcal/mol
13,SAGGSAMKGLSVERVELDGEEVVRIEIETPAGGSETLELSLRDPEAVEAYLAALKAAGVIAEILPESAGGSA [r15_575_JUSTAS],1.11 ± 0.14 kcal/mol
14,SAGGSAGGMPAEWLDEIEAPPGNYRAELYKTEKEVRIIITLPNGEKLELTFEVKPDEEILVLPGSAGGSAGG [r6_379_TrMRF],2.05 ± 0.097 kcal/mol
15,SAGGSAGGSDKIVERLQKRFPNVRISNIQPTPDGVTIQIENPDGKEFTIPYDELEKHGIEIEPSAGGSAGGS [r12_3_TrROS],0.456 ± 0.16 kcal/mol
16,SAGGSAMSIPLEELIEYVKKPGYKITEKKLPNGTLEITITNPKTGKTTKVTVYPPPTFSVEIKPDPSAGGSA [r15_442_JUSTAS],1.07 ± 0.091 kcal/mol

row,Sequence,folding stability dG unfold
1,SAGGSAGGPPDIVTLPIWIGGLKVEIMVYPDGSVTIMFRFPDWYYMITFPLKNGKIEIEWVPLKSAGGSAGG [r6_555_TrROS],3.35 ± 0.22 kcal/mol
2,SDYYIINIKIEVYYDGKPVREIPIFILVPPEQALMIAETIAEMLPGYKVKIKINVYRIPEDDPELREAFGSA [r9_782_TrROS],2.93 ± 0.18 kcal/mol
3,SGFEVERVEVEADLDKPTVARFLLVNPDGQPIVALDPVVRLGEEALVLSVYRNPVDGELRVTARRIRLDGSA [r9_269_TrMRF],1.21 ± 0.043 kcal/mol
4,SAGMEELAEELAKELEGEGLKVEVEVDPETGVVTVTAYSPESVTVVTITQDPNNDAFTVNTTTYPPLLSAGG [r19_2_JUSTAS],3.02 ± 0.059 kcal/mol
5,SMTVVIDIPPEVPVPGSGSVRPVPVEEVLKRVEEAMAKGKKVVVTGRDPKHPLVQEVAARLEELGVEVVGSA [r9_468_JUSTAS],0.59 ± 0.054 kcal/mol
6,SAGGSAGGKLVLKIKIYNKKTKKVYEFEIEADSLEELKEALKKLGLPKDVKIVSVELRPLDEEPSAGGSAGG [r6_23_TrROS_Hall],4.79 ± 0.092 kcal/mol
7,SAGGSAGGSAGGSLTFDGPDTKIEVYELDDDLLPVTIYTDSAPRTILVPPKEFLKLLASSAGGSAGGSAGGS [r4_346_TrMRF],0.367 ± 0.089 kcal/mol
8,SAGGSAGGKIKVEYNPENNMYRVTIKLPGGKIKIYIPPGQTEEQGEKNVKHMAKELLKKNGIKISAGGSAGG [r6_679_TrROS],1.17 ± 0.44 kcal/mol
9,SVPPNAPPGMKPKRVEIFIFIPPELYDKDGKISPEQLKKAKGMAKMIKLRLREQYPGYGIDDVKVHIMPGSA [r9_943_TrROS],3.14 ± 0.097 kcal/mol
10,SFKLEKTITLPDYVLKIEVTFKPKPDKTVIAPIKVTIYDPVKKKPYTKELTKPFPPEDPLKFVEEALKEIFS [r1_171_TrMRF],0.438 ± 0.33 kcal/mol
11,SAGKTATFTFTLPLPENDLILRVTVRVEEVEDIGEKKVYRVNVEIDLIDKDGVPHRFSFSFLVPAEELFSAG [r14_916_TrMRF],4.83 ± 0.16 kcal/mol
12,SAGGSAGGSAPSKKVKFKVLAKNTKTGKYKEIDITAEVPVSNGKVVSIEELLKKFPDFELKPSAGGSAGGSA [r18_267_TrMRF],0.172 ± 0.21 kcal/mol
13,SAGGMTIFLPLENKEEVIEKLKKEGYKPVEVKEEGDVVTIKVEKKKDEKKEEITIVFYPPSKPEEPVSAGGS [r8_307_JUSTAS],2.68 ± 0.1 kcal/mol
14,SAGGSAMITVDPGEKTVTVEIDLPVYKSYTYPGGETKAYPLELPEEEAKKVADEIAEAFKKKLEGESAGGSA [r15_365_JUSTAS],0.134 ± 0.24 kcal/mol
15,SAGGSAGGVPEVVEEVAREVDPRIVTRVEVRVFEPPPEYRLVVVVVELRLPTERRFVPRVVRLRSAGGSAGG [r6_630_TrMRF],3.25 ± 0.31 kcal/mol
16,SAGGSAGGSAGGMEVYRNPETGTLVFLFELEDGSYVAVTINPDGSVEVRVFDKDGRWVPSAGGSAGGSAGGS [r10_299_TrROS_Hall],3.03 ± 0.081 kcal/mol
